The results in this text go back to patent US20120322725A1.

Where two headings read alike, the source gives them in different places. PLA = 3-phenyllactic acid (2-hydroxy-3-phenylpropanoic acid)

Experiment [1] addresses glucagon receptor (UniProt P47871). The experiment can be described thus: cell-based or functional assay.
Experiment [2] has the same target. The experiment can be described thus: cell-based or functional assay. The source holds these as a separate data set.
Experiment [3] has as its target GLP-1 receptor (UniProt P43220). The experiment in a line: cell-based or functional assay.
Experiment [4] shares this target. The experiment can be described thus: cell-based or functional assay. The source holds these as a separate data set.
Experiment [5] addresses glucagon receptor, P47871. The experiment can be described thus: receptor binding, method not described.
The target in experiment [6] is glucagon receptor, P47871. The experiment can be described thus: cell-based or functional assay.
Chain of glucagon receptor, P47871 (P47871 26-477 limits assumed): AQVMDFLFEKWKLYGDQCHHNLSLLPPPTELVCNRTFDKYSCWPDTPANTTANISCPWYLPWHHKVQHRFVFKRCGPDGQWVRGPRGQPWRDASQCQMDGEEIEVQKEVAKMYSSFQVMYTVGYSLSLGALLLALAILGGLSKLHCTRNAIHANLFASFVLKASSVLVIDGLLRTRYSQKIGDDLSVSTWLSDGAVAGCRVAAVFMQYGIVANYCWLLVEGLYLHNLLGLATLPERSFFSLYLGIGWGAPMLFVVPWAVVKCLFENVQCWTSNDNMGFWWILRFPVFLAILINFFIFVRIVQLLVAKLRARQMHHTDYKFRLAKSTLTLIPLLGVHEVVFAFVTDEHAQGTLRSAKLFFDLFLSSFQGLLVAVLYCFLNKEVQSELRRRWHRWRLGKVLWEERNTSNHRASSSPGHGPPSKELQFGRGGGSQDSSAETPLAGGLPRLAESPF

Chain of GLP-1 receptor (P43220 24-463 limits assumed): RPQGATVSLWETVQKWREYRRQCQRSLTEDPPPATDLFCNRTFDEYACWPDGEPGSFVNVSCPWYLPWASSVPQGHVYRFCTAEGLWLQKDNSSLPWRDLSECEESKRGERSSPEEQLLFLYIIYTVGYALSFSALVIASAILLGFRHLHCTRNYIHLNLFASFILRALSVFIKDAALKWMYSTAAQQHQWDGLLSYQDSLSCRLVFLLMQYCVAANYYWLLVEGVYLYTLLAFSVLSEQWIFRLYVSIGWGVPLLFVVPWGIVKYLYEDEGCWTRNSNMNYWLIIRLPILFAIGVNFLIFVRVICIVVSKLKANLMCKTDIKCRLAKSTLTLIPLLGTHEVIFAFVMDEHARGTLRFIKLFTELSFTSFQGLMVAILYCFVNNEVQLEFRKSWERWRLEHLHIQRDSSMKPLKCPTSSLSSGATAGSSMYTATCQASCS
Chain of glucagon receptor (P47871 26-477 limits assumed): as the sequence (P47871 26-477 limits assumed) above

In the experiment with glucagon receptor [1], FTSEYSKYLDERRAQDFVQWLMNTGPSSGAPPPS [Glucagon (6-CEX) analog E9, K12, E16] had a Glu IC50 of 762 nM. The molecule further returned a Glucagon IC50 in the experiment with glucagon receptor [2] of 762 nM.

FTSEYSKYLDERRAKDFVQWLMNTGPSSGAPPPS (lactam between E16 and K20 (glucagon numbering)) [Glucagon (6-CEX) analog E9, E16K20 (lactam)] showed a Glu IC50 with glucagon receptor [1] of 42 nM. The GLP-1 (EC50) with GLP-1 receptor [3] was 36 nM. In the experiment with glucagon receptor [2], the Glucagon IC50 was 42 nM.

The molecule FTSEYSKYLDERRAQDFVQWLMNTGPSSGAPPPS (lactam between K12 and E16 (glucagon numbering)) [Glucagon (6-CEX) analog E9, K12E16 (lactam)] had a Glu IC50 with glucagon receptor [1] of 2010 nM. This molecule also came in with a GLP-1 (EC50) with GLP-1 receptor [3] of 63 nM. For the same molecule, the Glucagon IC50 with glucagon receptor [2] stood at 2010 nM.

Consider FTSDYSKYLDERRAQDFVQWLMNTGPSSGAPPPS (lactam between K12 and E16 (glucagon numbering)) [Glucagon (6-CEX) analog D9, K12E16 (Lactam)], for which the Glu IC50 with glucagon receptor [1] was found to be 828 nM. For the same molecule, the GLP-1 (EC50) is 119 nM in the experiment with GLP-1 receptor [3] and 18 nM with GLP-1 receptor [4]. In the experiment with glucagon receptor [2], this molecule returned a Glucagon IC50 of 828 nM.

B1: [PLA6, E9, K12E16 (Lactam)] glucagon (6-CEX) analog (peptide)
peptide: TSEYSKYLDERRAQDFVQWLMNTGPSSGAPPPS
modifications: PLA at position 6, N-terminal to the letters given; lactam between K12 and E16 (glucagon numbering)
In the experiment with glucagon receptor [1], B1 came in with a Glu IC50 of 72 nM. In the experiment with GLP-1 receptor [3], this molecule displayed a GLP-1 (EC50) of 6 nM. This molecule also displayed a Glucagon IC50 with glucagon receptor [2] of 72 nM.

{PLA}-TSEYSKYLDSRRAQDFVQWLMNTGPSSGAPPPS-NH2 [[PLA6, E9]Glucagon (aa6-29 + CEX)-NH2] returned a 50% inhibitory concentration (IC50) in experiment [5] of 40.3 nM. Also, the IC50(nM) (cAMP, inhibit Glucagon) 0.1 nM or 0.2 nM in experiment [6] is 24.8 nM.
